The target of one assay is T1, GST-ATG8A, Q8LEM4.
T1 chain: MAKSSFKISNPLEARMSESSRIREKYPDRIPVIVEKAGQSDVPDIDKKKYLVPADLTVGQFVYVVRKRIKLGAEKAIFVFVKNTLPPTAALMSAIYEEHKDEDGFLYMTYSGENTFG
The assay is described as follows: microscopy-based protein-protein interaction assay (on-bead binding, confocal). The settings on record: chain shown with the change; 1 μM C53 protein; glutathione-sepharose beads with GST-ATG8A; parent: est. 1.0; read off a plot.

Assay [1] deals with GST-GABARAP (human), O95166. Kind of assay: microscopy-based on-bead protein-protein interaction assay. The settings on record: remark: other sources report otherwise.
GST-GABARAP (human), O95166, sequence (O95166 whole entry): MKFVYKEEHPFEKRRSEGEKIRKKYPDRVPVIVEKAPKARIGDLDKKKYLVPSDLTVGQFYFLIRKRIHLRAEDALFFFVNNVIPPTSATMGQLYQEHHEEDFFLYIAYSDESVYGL

Residue numbers refer to the chain shown, from its start. Names and notes keep the numbering of the source.

B1: mCh-HsC53, Q96JB5 IDWG267WDGI; IDWG292WDGI; IDWG310WDGI (protein)
chain: MEDHQHVPIDIQTSKLLDWLVDRRHCSLKWQSLVLTIREKINAAIQDMPESEEIAQLLSGSYIHYFHCLRILDLLKGTEASTKNIFGRYSSQRMKDWQEIIALYEKDNTYLVELSSLLVRNVNYEIPSLKKQIAKCQQLQQEYSRKEEECQAGAAEMREQFYHSCKQYGITGENVRGELLALVKDLPSQLAEIGAAAQQSLGEAIDVYQASVGFVCESPTEQVLPMLRFVQKRGNSTVYEWRTGTEPSVVERPHLEELPEQVAEDAWDGIDFGVEAVSEGTDSGISAEAAGWDGIIFPESDSKDPGGDGWDGIDDAVALQITVLEAGTQAPEGVARGPDALTLLEYTETRNQFLDELMELEIFLAQRAVELSEEADVLSVSQFQLAPAILQGQTKEKMVTMVSVLEDLIGKLTSLQLQHLFMILASPRYVDRVTEFLQQKLKQSQLLALKKELMVQKQQEALEEQAALEPKLDLLLEKTKELQKLIEADISKRYSGRPVNLMGTSL
Turning to B1, the response (normalized fluorescence) in the assay with GST-ATG8A, Q8LEM4 turned out to be 1.2.

B2: mCh-HsC53^sAIM (W269A, W294A, W312A), Q96JB5 1-506 (natural protein)
chain: B1 chain with W267I, G269A, I270G, W292I, G294A, I295G, W310I, G312A, I313G
Turning to B2, the percent less recruited than the wild type in assay [1] was determined as 78%.

Values taken from article PMC10183829, “Shuffled ATG8 interacting motifs form an ancestral bridge between UFMylation and autophagy” (The EMBO Journal, 2023).
